Laboratory results reported in US5502166, “NMDH receptor proteins and genes encoding the same” (Mitsubishi Chemical Corporation, dated 1996).

Molecular target: ζ1 NMDA type glutamate receptor subunit (mouse, wild type) (mouse, UniProt P35438)
Test: cell-based or functional assay

- inward current at a membrane potential of -70 mV, Xenopus oocytes, 10 µM L-glutamate and 10 µM glycine, frog standard Ringer's solution: 191 nA
B1: glutamate receptor ε3 subunit (mouse NMDA type glutamate receptor channel subunit) (receptor)
chain: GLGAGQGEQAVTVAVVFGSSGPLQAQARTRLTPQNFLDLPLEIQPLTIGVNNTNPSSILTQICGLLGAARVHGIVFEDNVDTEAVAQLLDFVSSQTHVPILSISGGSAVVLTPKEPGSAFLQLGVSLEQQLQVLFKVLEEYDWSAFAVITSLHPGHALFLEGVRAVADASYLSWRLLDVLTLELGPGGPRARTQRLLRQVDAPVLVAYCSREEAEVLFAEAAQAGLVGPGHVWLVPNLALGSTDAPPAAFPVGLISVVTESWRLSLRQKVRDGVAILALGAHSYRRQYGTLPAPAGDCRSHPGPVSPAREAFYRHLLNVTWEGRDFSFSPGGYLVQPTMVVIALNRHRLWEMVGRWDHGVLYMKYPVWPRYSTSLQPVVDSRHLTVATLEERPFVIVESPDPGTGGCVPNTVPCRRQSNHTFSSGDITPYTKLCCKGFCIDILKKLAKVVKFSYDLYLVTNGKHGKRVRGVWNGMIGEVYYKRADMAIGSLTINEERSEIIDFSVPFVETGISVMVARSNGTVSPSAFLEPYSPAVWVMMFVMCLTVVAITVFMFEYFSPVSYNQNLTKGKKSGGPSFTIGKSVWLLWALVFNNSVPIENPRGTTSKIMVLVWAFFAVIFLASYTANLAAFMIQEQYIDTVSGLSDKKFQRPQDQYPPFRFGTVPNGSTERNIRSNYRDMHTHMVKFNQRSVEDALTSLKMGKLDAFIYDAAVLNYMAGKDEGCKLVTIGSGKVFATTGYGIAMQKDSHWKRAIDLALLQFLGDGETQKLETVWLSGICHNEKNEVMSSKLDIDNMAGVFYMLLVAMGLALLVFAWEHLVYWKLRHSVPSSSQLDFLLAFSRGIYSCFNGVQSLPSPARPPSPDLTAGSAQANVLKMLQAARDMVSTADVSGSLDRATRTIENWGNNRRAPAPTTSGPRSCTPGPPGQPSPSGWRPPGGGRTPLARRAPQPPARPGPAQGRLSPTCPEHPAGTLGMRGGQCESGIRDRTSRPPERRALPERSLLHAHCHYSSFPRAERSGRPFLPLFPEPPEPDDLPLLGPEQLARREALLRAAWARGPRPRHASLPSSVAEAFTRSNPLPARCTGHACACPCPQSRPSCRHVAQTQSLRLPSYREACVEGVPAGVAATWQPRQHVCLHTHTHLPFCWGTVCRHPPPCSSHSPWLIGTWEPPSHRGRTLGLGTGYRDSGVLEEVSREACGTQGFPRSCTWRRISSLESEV
